According to patent US20240124602A1:

Target: canine CD20 (canine) (UniProt Q3C2E2)
Experiment: flow cytometry on canine PBMCs without 18F6 (control), FSC-H/SSC-H subset, Event Count 9100; FL1-H = 2o FITC alone, FL2-H = CD21-PE

Sequence of UniProt Q3C2E2 (Q3C2E2 whole entry): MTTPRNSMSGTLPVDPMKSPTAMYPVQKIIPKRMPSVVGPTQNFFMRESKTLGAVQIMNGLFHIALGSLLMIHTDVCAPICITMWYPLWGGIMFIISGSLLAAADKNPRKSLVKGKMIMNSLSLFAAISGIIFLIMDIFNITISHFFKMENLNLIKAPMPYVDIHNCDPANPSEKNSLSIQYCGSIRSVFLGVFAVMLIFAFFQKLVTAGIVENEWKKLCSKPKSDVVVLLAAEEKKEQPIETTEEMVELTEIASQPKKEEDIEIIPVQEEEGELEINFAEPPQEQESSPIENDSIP

A quadrant number, lower left (FL1-H low, FL2-H low); unit not given of 72.5, a quadrant number, lower right (FL1-H low, FL2-H high); unit not given of 22.9 and a quadrant number, upper left (FL1-H high, FL2-H low); unit not given of 2.18 were found for 2o FITC (antibody) in this work. It also gave a quadrant number, upper right (FL1-H high, FL2-H high); unit not given of 2.37.
